± gives the standard deviation of the averaged measurements.
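Further: PSI is a weighted mean of sequencing reads over stability bins, variants kept only with over 10 reads, mCherry proximal and sfGFP distal, peptide attached via GGGS linker.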

The subject of this data set is Saccharomyces cerevisiae. In words: protein stability index of tFT-peptide fusion (C-terminal peptide) (PSI (0-1 scale)); higher = more stable (slower turnover). Conditions: genetic background: wild type; temperature: 30 C.
For STNNSGRPMSFL, the protein stability index is 0.664 ± 0.045.

For STPPAPPPLLPP, the protein stability index came out at 0.736 ± 0.031.

STSYLKLKYSIY: the protein stability index is 0.498 ± 0.038.

STVESAWPAGPA showed a protein stability index of 0.712 ± 0.0016.

As for STVSLASPARSP, the protein stability index worked out at 0.683 ± 0.048.

With SVGSLLAFLHRR, the protein stability index was 0.68336 ± 0.00055.

For the sequence SVIGLNLVGMGW, the protein stability index was 0.641 ± 0.046.

The sequence SVIYQMMGRIVR yielded a protein stability index of 0.723 ± 0.07.

SVLRGLCFDGYR had a protein stability index of 0.7252 ± 0.0064.

Take SVLSPTLESLIF: the protein stability index worked out at 0.681 ± 0.032.

Consider SVNRRTVYRKNK, for which the protein stability index turned out to be 0.764 ± 0.17.

The sequence SVPLTPKTPPPP showed a protein stability index of 0.701 ± 0.049.

With SVPSRSSAALCS, the protein stability index worked out at 0.714 ± 0.067.

In the case of SVPYALPTTPPR, the protein stability index amounted to 0.676 ± 0.045.

For SVRLVGHGARDR, the protein stability index was found to be 0.699 ± 0.18.

SVSPRPSPPAVP had a protein stability index of 0.708 ± 0.13.

The sequence SVVLIQVVSKPT showed a protein stability index of 0.58 ± 0.015.

Turning to SVVVIGSSYASG, the protein stability index came out at 0.5899 ± 0.0023.

In turn, SVVVVAKAKAGR displayed a protein stability index of 0.635 ± 0.047.

The sequence SVWFSFVKVRGG gave a protein stability index of 0.612 ± 0.0037.

For the sequence SVYFSLITRPYY, the protein stability index was determined as 0.667 ± 0.012.

In the case of SWCQFAVGGIIH, the protein stability index was found to be 0.664 ± 0.013.

As for SWECRGMGVCGG, the protein stability index was 0.721 ± 0.02.

Sequence SWFYTQSEKTLS came in with a protein stability index of 0.7798 ± 0.005.

Sequence SWGHTGTLRNDI gave a protein stability index of 0.747 ± 0.035.

In turn, SWGLSVSSCFVW displayed a protein stability index of 0.578 ± 0.0066.

SWICSTRSYQRE had a protein stability index of 0.702 ± 0.044.

As to SWMDRGGSYSGI, the protein stability index came to 0.684 ± 0.12.

As to SWTCSPLKSFHS, the protein stability index was 0.734 ± 0.049.

SWVELCSQEVVI gave a protein stability index of 0.603 ± 0.01.

Sequence SWVVSLGFAIGL gave a protein stability index of 0.693 ± 0.055.

Regarding SWYAGGRRWIVV, the protein stability index was 0.608 ± 0.022.

In turn, SYGSLFCSHLDG showed a protein stability index of 0.6828 ± 0.0014.

SYGWSQGPLSCW displayed a protein stability index of 0.767 ± 0.01.

Sequence SYTIPPSTYLPS showed a protein stability index of 0.704 ± 0.043.

SYVYETERNEST showed a protein stability index of 0.715 ± 0.019.

In the case of TACPPSTPSTAF, the protein stability index was 0.689 ± 0.033.

TAGPHPLSLPPP: the protein stability index was found to be 0.709 ± 0.033.

Regarding TALFRLRRPRLR, the protein stability index is 0.801 ± 0.021.

TAPRERFGKDPR registered a protein stability index of 0.649 ± 0.056.

TARAGRTASAPR: the protein stability index was 0.7084 ± 0.0025.

In turn, TARVPARLTHAS came in with a protein stability index of 0.683 ± 0.029.

On to TAYRGCSDRNAG, for which the protein stability index is 0.603 ± 0.042.

The sequence TCRGRLCVCLFC displayed a protein stability index of 0.505 ± 0.015.

TDPLGDDSSESE returned a protein stability index of 0.672 ± 0.048.

Turning to TEHRVGEKEPWH, the protein stability index came out at 0.681 ± 0.018.

Sequence TEKQSGRINTAI had a protein stability index of 0.653 ± 0.034.

Sequence TERPMAVESRAW gave a protein stability index of 0.686 ± 0.012.

In the case of TEVSDVSWSEVW, the protein stability index amounted to 0.696 ± 0.025.

TFDNEYKRSRKV showed a protein stability index of 0.678 ± 0.033.

TFFGEDVGVVVD: the protein stability index amounted to 0.69681 ± 0.00058.

With TFHTSSSPAHLP, the protein stability index was found to be 0.663 ± 0.038.

TFSVNLGAASAK gave a protein stability index of 0.662 ± 0.042.

In the case of TGGKGNKNKIKE, the protein stability index was determined as 0.692 ± 0.031.

TGLMAPEGGGQA returned a protein stability index of 0.719 ± 0.076.

Sequence TGRGVFCMSIHM had a protein stability index of 0.643 ± 0.045.

Consider TGRQQTCRIIIE, for which the protein stability index was determined as 0.6873 ± 0.00092.

Regarding TGRRLVLGDRCM, the protein stability index was found to be 0.72 ± 0.011.

In turn, TGSRISHSPLYP returned a protein stability index of 0.671 ± 0.02.

TGTPGAVRRGGA showed a protein stability index of 0.727 ± 0.1.

TGVGRLGYRFVV returned a protein stability index of 0.588 ± 0.0064.

With TGWSRTTVGFAT, the protein stability index was 0.711 ± 0.046.

With THMSPLPTSERW, the protein stability index came out at 0.678 ± 0.085.

Regarding THPPPPPPACSV, the protein stability index came to 0.632 ± 0.037.

As for THRNEKQGTVTY, the protein stability index was 0.651 ± 0.016.

THSLSCPPRNPP registered a protein stability index of 0.647 ± 0.07.

Take THVDLGVLVSPE: the protein stability index was 0.6698 ± 0.0017.

For the sequence THVKVNNQARGR, the protein stability index turned out to be 0.722 ± 0.014.

TIATASWILRRL: the protein stability index was determined as 0.624 ± 0.0045.

As for TIRHKALTRKSR, the protein stability index was determined as 0.713 ± 0.012.

As for TKIENYKRKRAK, the protein stability index was 0.708 ± 0.1.

As for TKIKKKTQEGSR, the protein stability index is 0.698 ± 0.029.

Sequence TKKRKRKKKGNK gave a protein stability index of 0.715 ± 0.05.

Take TKQIKKNKHKRA: the protein stability index is 0.727 ± 0.12.

As to TLAPSKHGSNRT, the protein stability index was determined as 0.666 ± 0.049.

Sequence TLCCLFPIPSSS yielded a protein stability index of 0.699 ± 0.08.

TLCFSFPVPGFL had a protein stability index of 0.723 ± 0.1.

On to TLCTSPWGVVAV, for which the protein stability index came out at 0.511 ± 0.024.

Take TLQLFPRIPSFQ: the protein stability index was 0.707 ± 0.0019.

With TLRLPLHLLRPT, the protein stability index is 0.642 ± 0.021.

These data come from the supplement of paper PMC10724198.
